From patent US20240417462A1

Target: TIGIT on PHA-activated human peripheral blood mononuclear cells (PBMC) (human) (UniProt Q495A1)
Assay: cell-based or functional assay

Chain of TIGIT on PHA-activated human peripheral blood mononuclear cells (PBMC) (human) (Q495A1 22-244): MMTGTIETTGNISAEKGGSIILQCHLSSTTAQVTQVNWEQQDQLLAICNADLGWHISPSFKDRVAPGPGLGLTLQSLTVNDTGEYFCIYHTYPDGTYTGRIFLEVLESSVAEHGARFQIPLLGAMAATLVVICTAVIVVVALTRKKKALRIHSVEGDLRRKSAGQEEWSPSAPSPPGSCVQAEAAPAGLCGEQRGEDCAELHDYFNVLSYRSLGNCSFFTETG

- IFNγ release, increase over no antibody: 16%
Substance: Tiragolumab (antibody)
